The source of these data is IntAct's records for PubMed 23825108.

The labels stand for the following.
B1: Cyanocobalamin reductase / alkylcobalamin dealkylase (Homo sapiens), Q9Y4U1 (parent)
chain: MEPKVAELKQKIEDTLCPFGFEVYPFQVAWYNELLPPAFHLPLPGPTLAFLVLSTPAMFDRALKPFLQSCHLRMLTDPVDQCVAYHLGRVRESLPELQIEIIADYEVHPNRRPKILAQTAAHVAGAAYYYQRQDVEADPWGNQRISGVCIHPRFGGWFAIRGVVLLPGIEVPDLPPRKPHDCVPTRADRIALLEGFNFHWRDWTYRDAVTPQERYSEEQKAYFSTPPAQRLALLGLAQPSEKPSSPSPDLPFTTPAPKKPGNPSRARSWLSPRVSPPASPGP

Variants of B1 are the subject of the assay. As to conditions: with meth_human MTR.
On to MEPKVAELKQKIEDTLCPFGFEVYPFQVAWYNELLPPAFHLPLPGPTLAFLVLSTPAMFDRALKPFLQSCHLRMLTDPVDQCVAYHLGRVRESLPELQIEIIADYEVHPNRRPKILAQTAAHVAGAAYYYQRQDVEADPWGNQRISGVCIHPRFGGWFAIQGVVLLPGIEVPDLPPRKPHDCVPTRADRIALLEGFNFHWRDWTYRDAVTPQERYSEEQKAYFSTPPAQRLALLGLAQPSEKPSSPSPDLPFTTPAPKKPGNPSRARSWLSPRVSPPASPGP [R161Q], for which the “effect of a mutation on the interaction” value was “decreasing interaction strength”.
As for MEPKVAELKQKIEDTLCPFGFEVYPFQVAWYNELLPPAFHLPLPGPTLAFLVLSTPAMFDRALKPFLQSCHLRMLTDPVDQCVAYHLGRVRESLPELQIEIIADYEVHPNRRPKILAQTAAHVAGAAYYYQRQDVEADPWGNQRISGVCIHPRFGGWFAIRGVVLLPGIEVPDLPPRKPHDCVPTRADRIALLEGFNFHWRDWTYWDAVTPQERYSEEQKAYFSTPPAQRLALLGLAQPSEKPSSPSPDLPFTTPAPKKPGNPSRARSWLSPRVSPPASPGP [R206W], the “effect of a mutation on the interaction” value was “decreasing interaction strength”.
